Laboratory results taken from US20220403048A1, “BINDING MOLECULES TO ARGINASE II [ARG2]” (Cancer Research Technology Limited, priority 2019, published 2022).

Experiments:
trimeric human ARG2 = molecular target: T1, trimeric human ARG2 (Homo sapiens, UniProt P78540); test: Human trimeric ARG2 enzyme inhibition assay (urea production); assay type: biochemical
T1 construct: human ARG2 (aa23-354); His10 (C); made in house; host or cells: E. coli BL21 (DE3)
T1 sequence (P78540 23-354): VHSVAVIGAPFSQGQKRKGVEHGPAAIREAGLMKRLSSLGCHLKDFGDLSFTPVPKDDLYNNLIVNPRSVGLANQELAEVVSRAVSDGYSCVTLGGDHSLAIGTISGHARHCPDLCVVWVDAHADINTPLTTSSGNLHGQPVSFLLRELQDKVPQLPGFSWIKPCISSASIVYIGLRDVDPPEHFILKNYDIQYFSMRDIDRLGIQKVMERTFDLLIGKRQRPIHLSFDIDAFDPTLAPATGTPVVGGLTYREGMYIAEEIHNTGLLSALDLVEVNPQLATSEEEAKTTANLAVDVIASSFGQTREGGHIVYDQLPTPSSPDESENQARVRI
Description: Unpurified anti-ARG2 scFv fragments from periplasmic preparations were screened in an ARG2 enzyme inhibition assay using a Pherastar plate reader (BMG Labtech, Germany). In this assay, the ability of unpurified scFv to inhibit the enzymatic activity of trimeric ARG2 was determined by measuring the production of urea, the product of L-arginine turnover by ARG2.
Selection outputs were screened as unpurified bacterial periplasmic extracts containing scFv, prepared in 200 mM TES buffer pH 7.4, 0.5 mM EDTA and 0.5 M sucrose. 10 μl of unpurified scFv were added to a Greiner Bio-One® 384 well assay plate (Greiner Bio-one, UK; cat: 781901). This was followed by the addition of 5 μl of 1.6 μg/ml trimeric human ARG2 that had been diluted in 40 mM MnCl2, 100 mM tris-HCl, pH7.4 (4× enzyme buffer). […]
Urea was detected by the simultaneous addition of equal volumes of O-Phthaldialdehyde (1.5 mM O-Phthaldialdehyde, 7% H2SO4, 0.03% Brij L23) and N-(1-Napthyl)ethylenediamine (1.66 mM N-(1-Napthyl)ethylenediamine, 81 mM Boric acid, 21% H2SO4, 0.03% Brij L23) followed by an 18 minute incubation at room temperature before the colorimetric product was quantified on the Pherastar by measuring absorbance at 505 nm. […]
Data were analysed by calculating % maximum (max) control for each sample using the 505 nm absorbance data. % max control was determined according to equation 2. […]
IC50 values were determined by testing a dilution series of the purified scFv, prepared in TBS, in the ARG2 enzyme inhibition assay described in section 1.5, substituting the unpurified scFv periplasmic preparation with the purified scFv.
Background control wells were defined for each plate by the omission of substrate. […] Data were analysed by calculating % maximum (max) control for each sample. % max control was determined according to equation 1 detailed in section 1.5. […]
Data were again analysed by calculating % Max control values for each sample. […]

[1] = molecular target: T2, recombinant human trimeric ARG1 enzyme (Homo sapiens, UniProt P05089); test: Direct binding HTRF assay, human trimeric ARG1; conditions: purified scFv, FIG. 1B
T2 construct: Avi tag (N); His10 (after a GGG linker) (C); made in house; host or cells: E. coli BL21 (DE3)
T2 sequence (P05089 with tags, fused parts or gaps): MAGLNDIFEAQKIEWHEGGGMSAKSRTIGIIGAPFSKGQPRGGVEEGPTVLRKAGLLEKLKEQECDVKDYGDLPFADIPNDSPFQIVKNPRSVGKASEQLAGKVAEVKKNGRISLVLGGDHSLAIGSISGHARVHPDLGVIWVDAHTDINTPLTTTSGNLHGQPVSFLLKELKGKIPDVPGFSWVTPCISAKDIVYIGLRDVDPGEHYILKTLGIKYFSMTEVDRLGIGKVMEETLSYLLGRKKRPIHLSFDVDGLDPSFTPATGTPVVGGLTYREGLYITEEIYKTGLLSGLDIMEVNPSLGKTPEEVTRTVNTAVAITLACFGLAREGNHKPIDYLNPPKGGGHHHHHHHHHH

ARG2 = molecular target: T3, ARG2 (Homo sapiens, UniProt P78540); test: Isothermal titration calorimetry of BEC with ARG2 and ARG2-C0021158 fab complex; assay type: binding; design: human ARG2 (aa23-354); His10 (C); made in house; host or cells: E. coli BL21 (DE3); conditions: 20 μM ARG2 and 20 μM C0021158 fab, 0.50 mM BEC titrated, 25° C.
T3 sequence (P78540 23-354): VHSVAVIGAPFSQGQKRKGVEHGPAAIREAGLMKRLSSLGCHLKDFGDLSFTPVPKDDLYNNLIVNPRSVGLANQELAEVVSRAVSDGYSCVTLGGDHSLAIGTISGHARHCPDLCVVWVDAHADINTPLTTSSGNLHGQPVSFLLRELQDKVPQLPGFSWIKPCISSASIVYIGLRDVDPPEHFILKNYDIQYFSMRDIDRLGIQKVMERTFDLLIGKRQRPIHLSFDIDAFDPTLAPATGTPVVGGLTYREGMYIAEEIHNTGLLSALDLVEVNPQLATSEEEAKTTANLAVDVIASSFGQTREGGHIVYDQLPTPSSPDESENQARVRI
Description: To assess the accessibility of the ARG2 active site, we analysed binding of the ARG2 small-molecule inhibitor S-(2-Boronoethyl)-L-cysteine hydrochloride (BEC) by isothermal titration calorimetry (ITC) using a VP ITC (MicroCal) set to 25° C. (FIG. 15B). BEC is an arginine analogue that binds to the active site of ARG2. First, volumes of 10 μl of a solution containing 0.75 mM BEC were added to 20 μM of ARG2 (monomer concentration). The resulting thermogram was integrated using NITPIC and the binding isotherm was fitted with SEDPHAT using a one-binding site model. In a second experiment, volumes of 10 μl of 0.50 mM BEC were added to a solution containing a pre-incubated 1:1 molar mixture of C0021158 fab and ARG2 (both 20 μM, incubation 1 h at 20° C.).

B1: C0020065: anti-ARG2 antibody, alternate lead isolation clone, VH SEQ ID NO: 2, VL SEQ ID NO: 7 (antibody, listed as Homo sapiens, V domains shown)
VH: GVNLRESGGGVVQPGRSLRLSCAASGFTFSSYAMHWVRQAPGKGLEWVAVISYDGSNKYYVDSVKGRFTISRDNSKNTLYLQMNSLRAEDTAVYYCARDSSQLWFDYWGRGTLVTVSS
VL: QSVVTQPPSVSGAPGQRVTISCTGSSSNIGTGYDVHWYQQLPGTAPKLLIYGNSNRPSGVPDRFSGSKSGTSASLAITGLQAEDEADYYCQSYDSSLSGSVVFGGGTQLTVL
modifications: C0020065
For B1, the “inhibition of the activity of human trimeric ARG2” value (trimeric human ARG2; purified recombinant human IgG1, FIG. 3) was “inhibited”, the “inhibition of the activity of human trimeric ARG2” value (trimeric human ARG2; purified scFv, FIG. 2) was “inhibited” and the “binding to biotinylated recombinant human trimeric ARG1 enzyme” value [1] was “no binding”.

B2: C0021158 IgG: anti-ARG2 antibody, VH SEQ ID NO: 282, VL SEQ ID NO: 287; IgG and Fab versions carry these sequences (antibody, listed as Homo sapiens, V domains shown)
VH: EVQLLESGGGLVQPGGSLRLSCAASGFTFRYEVAAWVRQAPGKGLEWVSAISGPIPKGYYADSVKGRFTISRDNSKNTLYLQMNSLRAEDTAVYYCARLRADLGLYMDLWGRGTLVTVSS
VL: QSVLTQPPSVSAAPGQKVTISCSGSSSNIGNHYVSWYQQLPGTAPKLLIYDNSERTAGVPDRFSGSKSGTSATLGITGLQTGDEADYYCGTWDELTSNLVFGGGTKLTVL
modifications: C0021158 IgG
For B2, the “effect on binding of BEC to ARG2 (ITC)” value (ARG2) was “prevents BEC from binding”.
